T1: TIGIT expressed on cells (TIGIT-expressing effector cell line of the Promega kit); TIGIT-overexpressing NK92 … (UniProt Q495A1 22-244, limits assumed)
T1 sequence (looked up): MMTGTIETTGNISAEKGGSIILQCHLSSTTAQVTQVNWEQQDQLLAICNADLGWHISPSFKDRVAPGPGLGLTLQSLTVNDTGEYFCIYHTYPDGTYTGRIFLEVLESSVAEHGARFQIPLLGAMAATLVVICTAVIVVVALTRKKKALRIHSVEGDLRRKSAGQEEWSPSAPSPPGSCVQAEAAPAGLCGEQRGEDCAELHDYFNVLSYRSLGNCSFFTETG

T2: human TIGIT expressed on CHO-S cells (CHO-hTIGIT) (human, UniProt Q495A1 22-244)
T2 construct: also called CHO-TIGIT cell line; TIGIT on the cell surface
T2 sequence: T1 sequence (looked up)

T3: human TIGIT-Fc (rhTIGIT-Fc, R&D Systems) (human, UniProt Q495A1 22-141)
T3 construct: Bought protein; also called human TIGIT (rhTIGIT-Fc); not shown: Fc part of the bought fusion protein
T3 sequence: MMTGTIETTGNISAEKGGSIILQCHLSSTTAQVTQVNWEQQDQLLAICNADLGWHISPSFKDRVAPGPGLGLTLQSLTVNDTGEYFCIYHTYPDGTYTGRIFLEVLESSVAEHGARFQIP

T4: mouse TIGIT-Fc (rmTIGIT-Fc, R&D Systems) (mouse, UniProt P86176 29-148, limits assumed)
T4 construct: Bought protein; also called mouse TIGIT (rmTIGIT-Fc); not shown: Fc part of the bought fusion protein
T4 sequence (looked up): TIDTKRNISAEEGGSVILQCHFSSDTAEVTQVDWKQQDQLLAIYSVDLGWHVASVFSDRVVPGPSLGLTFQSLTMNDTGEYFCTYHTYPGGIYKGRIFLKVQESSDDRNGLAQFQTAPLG

B1: S64-39-IgG1 (antibody, V domains shown)
VH: EVQLLESGGGLVQPGGSLRLSCAASGFTFSNYAMSWVRQAPGKGLEWVSGISPSGSSIYYADSVQGRFTISRDNSKNTLYLQMNSLRAEDTAVYYCAKAIRTCSLSHCYYYYGMDVWGQGTLVTVSS
VL: QSVLTQPPSASGTPGQRVTISCSSSSSNIGSNAVNWYQQLPGTAPKLLIYYDNQRPSGVPDRFSGSKSGTSASLAISGLRSEDEADYYCATWDYSLSGYVFGGGTKLTVL
notes: also called 564-39-IgG1 [sic]; antibody based on the S64-39 clones
B2: S64-39-IgG4 (antibody, V domains shown)
VH: B1 VH
VL: B1 VL
notes: also called 564-39-IgG4 [sic]
B3: F04-10-IgG1 (antibody, V domains shown)
VH: EVQLLESGGGLVQPGGSLRLSCAASGFTFSSYYMSWVRQAPGKGLEWVSSIGSGSPSSTYYADSVKGRFTISRDNSKNTLYLQMNSLRAEDTAVYYCARSSYSGGNGYYYYAYAFDYWGQGTLVTVSS
VL: EIVLTQSPGTLSLSPGERATLSCRASQSVSSSYLAWYQQKPGQAPRLLIYGASSRATGIPDRFSGSGSGTDFTLTISRLEPEDFAVYYCQQGYHRYATFGQGTKVEIK
notes: also called antibody based on the F04-10 clones
B4: 10A7 antibody (antibody, V domains shown)
VH: EVQLVESGGGLTQPGKSLKLSCEASGFTFSSFTMHWVRQSPGKGLEWVAFIRSGSGIVFYADAVRGRFTISRDNAKNLLFLQMNDLKSEDTAMYYCARRPLGHNTFDSWGQGTLVTVSS
VL: DIVMTQSPSSLAVSPGEKVTMTCKSSQSLYYSGVKENLLAWYQQKPGQSPKLLIYYASIRFTGVPDRFTGSGSGTDYTLTITSVQAEDMGQYFCQQGINNPLTFGDGTKLEIKR

Biological target: T1, TIGIT expressed on cells …
Experiment: cell-based or functional assay

binding inhibition (EC50), TIGIT/CD155 blockade assay, luminescence fold response	Binder
581 nM	B1
1080 nM	B2
23.9 nM	B3

Biological target: T2, human TIGIT expressed on CHO-S cells …
Experiment: flow cytometry on CHO-TIGIT cells
Description: In order to identify the binding ability of the three types of anti-TIGIT antibodies produced in Example 2 to TIGIT expressed on the cell surface, TIGIT-overexpressing CHO cell line (hereinafter referred to as CHO-TIGIT cell line) was treated with anti-TIGIT antibodies and then the anti-TIGIT antibodies bound to TIGIT on the cell surface were detected using a fluorescence flow cytometer.
Specifically, the CHO-TIGIT cell line was cultured in a 5% CO2 incubator at 37° C. for 48 to 72 hours using a chemical composition medium (CD FortiCHO Chemically Defined Medium+8 mM L-Glutamine+20 μg/mL Blasticidin+1% Anti-clumping agent). The cultured CHO-TIGIT cell line was harvested by centrifugation, diluted in FACS solution (PBS+5% FBS), and dispensed at a density of 1×10⁵ cells/well in a 96-well round bottom plate (Corning). Then, in order to completely remove the chemical composition medium remaining on the cell surface, the FACS solution was added, centrifuged at 2,000 rpm for 3 minutes and washed three times to remove the supernatant. The washed CHO-TIGIT cell line was re-suspended by addition of 100 μL of FACS solution. The anti-TIGIT antibody of each concentration, which was diluted to 2 times the final concentration using the FACS solution, was added at 100 μL to a 96-well round bottom plate in which the CHO-TIGIT cell line was dispensed, and incubated at 4° C. for 1 hour. Then, in order to remove the anti-TIGIT antibody remaining in the supernatant, without binding to the TIGIT on the cell surface, the FACS solution was added to each well, centrifuged at 2,000 rpm for 3 minutes, and washed three times to remove the supernatant. Then, in order to detect anti-TIGIT antibody bound to TIGIT on the cell surface, a goat anti-human IgG (H+L) cross-adsorbed secondary antibody (Invitrogen) was diluted to 10 μg/mL using a FACS solution, and 100 μL of the diluted antibody was incubated at 4° C. for 1 hour. After washing three times, each sample was transferred to a 12×75 mm tube (BD Biosciences) and analyzed using a fluorescence flow cytometer.

EC50	Binder
0.0165 µg/mL	B4
0.069 µg/mL	B1
0.0808 µg/mL	B2
0.0164 µg/mL	B3

Biological target: T3, human TIGIT-Fc (rhTIGIT-Fc, R&D Systems)
Experiment: SPR (BIAcore T200), antibody immobilised on CM5 chip, TIGIT-Fc flowed
Excerpt: (§1) In order to measure binding abilities of the three types of anti-TIGIT antibodies produced in Example 2 to human TIGIT (rhTIGIT-Fc) and mouse TIGIT (rmTIGIT-Fc), surface plasmon resonance (SPR) using a BIAcore T200 (GE Healthcare) was used. The SPR method is based on the principle that the refractive index of light passing through a sensor chip changes according to the state of a substance coated on the sensor chip. When an antigen or antibody was made to flow into the chip coated with the antigen or antibody, the refractive index is changed due to binding therebetween and the affinity (KD) value is calculated from the measured value.
(§2) An anti-TIGIT antibody was immobilized on a Series S CM5 sensor chip (GE Healthcare) to a level of 500 RU using a 10 mM acetate solution (pH 4.0) and an amine coupling kit (GE Healthcare). […] The association of the TIGIT-Fc proteins was measured at a rate of 30 μL/min for 600 seconds, the dissociation was measured for 2,000 seconds, and the regeneration was carried out in a 10 mM glycine solution (pH 1.5) at a rate of 100 μL/min for 25 seconds.

Kd	koff	kon	Binder
1.19 nM	0.000193 s⁻¹	162000 M⁻¹ s⁻¹	B4
1.31 nM	4.41e-05 s⁻¹	33700 M⁻¹ s⁻¹	B1
1.15 nM	3.23e-05 s⁻¹	28200 M⁻¹ s⁻¹	B2
0.533 nM	3.76e-05 s⁻¹	70500 M⁻¹ s⁻¹	B3

Biological target: T4, mouse TIGIT-Fc (rmTIGIT-Fc, R&D Systems)
Experiment: as above
Excerpt: as §1, §2

Kd	koff	kon	Binder
0.182 nM	8.91e-05 s⁻¹	490000 M⁻¹ s⁻¹	B4
3.2 nM	0.000201 s⁻¹	62800 M⁻¹ s⁻¹	B1
3.12 nM	0.000194 s⁻¹	62200 M⁻¹ s⁻¹	B2
0.245 nM	2.93e-05 s⁻¹	120000 M⁻¹ s⁻¹	B3
